Laboratory results from PMC5104516, “TRIM28 regulates the nuclear accumulation and toxicity of both alpha-synuclein and tau” (eLife, 2016).

Experiments:
α-Syn:nYFP = α-Syn:nYFP (UniProt P37840 1-140); assay: split reporter (BiFC, NanoBiT); split-YFP; stable cell lines with α-Syn or tau fused to the N-terminal portion of YFP (bait), transfected with 250 ng prey plasmid with the C-terminal portion of YFP; fluorescence by flow cytometry at 48 hr and microscopy up to 72 hr; conditions: partners not purified
tau:nYFP = target: T1, tau:nYFP (UniProt P10636-8 1-441); assay: as above; conditions: partners not purified
T1 construct: microtubule associated protein tau; Plasmids and their construction are in Supplementary file 2; also called nYFP-tau; tau fused to an N-terminal moiety of YFP
T1 sequence (P10636 other isoform, or with tags, fused parts or gaps): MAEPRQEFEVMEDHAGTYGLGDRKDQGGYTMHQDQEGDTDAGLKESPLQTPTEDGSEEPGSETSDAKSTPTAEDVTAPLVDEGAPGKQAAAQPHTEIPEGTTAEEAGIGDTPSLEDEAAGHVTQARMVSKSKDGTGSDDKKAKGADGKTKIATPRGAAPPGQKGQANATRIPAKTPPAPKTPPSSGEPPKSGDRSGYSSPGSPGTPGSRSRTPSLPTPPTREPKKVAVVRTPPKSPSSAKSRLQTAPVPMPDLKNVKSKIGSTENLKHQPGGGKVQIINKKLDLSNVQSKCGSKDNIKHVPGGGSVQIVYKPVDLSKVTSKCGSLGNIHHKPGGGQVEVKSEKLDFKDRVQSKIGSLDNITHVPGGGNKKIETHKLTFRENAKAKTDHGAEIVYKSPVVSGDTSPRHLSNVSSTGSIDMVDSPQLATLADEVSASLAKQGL

B1: TRIM28:cYFP (natural protein, human, UniProt Q13263 1-835, looked up)
chain: MAASAAAASAAAASAASGSPGPGEGSAGGEKRSTAPSAAASASASAAASSPAGGGAEALELLEHCGVCRERLRPEREPRLLPCLHSACSACLGPAAPAAANSSGDGGAAGDGTVVDCPVCKQQCFSKDIVENYFMRDSGSKAATDAQDANQCCTSCEDNAPATSYCVECSEPLCETCVEAHQRVKYTKDHTVRSTGPAKSRDGERTVYCNVHKHEPLVLFCESCDTLTCRDCQLNAHKDHQYQFLEDAVRNQRKLLASLVKRLGDKHATLQKSTKEVRSSIRQVSDVQKRVQVDVKMAILQIMKELNKRGRVLVNDAQKVTEGQQERLERQHWTMTKIQKHQEHILRFASWALESDNNTALLLSKKLIYFQLHRALKMIVDPVEPHGEMKFQWDLNAWTKSAEAFGKIVAERPGTNSTGPAPMAPPRAPGPLSKQGSGSSQPMEVQEGYGFGSGDDPYSSAEPHVSGVKRSRSGEGEVSGLMRKVPRVSLERLDLDLTADSQPPVFKVFPGSTTEDYNLIVIERGAAAAATGQPGTAPAGTPGAPPLAGMAIVKEEETEAAIGAPPTATEGPETKPVLMALAEGPGAEGPRLASPSGSTSSGLEVVAPEGTSAPGGGPGTLDDSATICRVCQKPGDLVMCNQCEFCFHLDCHLPALQDVPGEEWSCSLCHVLPDLKEEDGSLSLDGADSTGVVAKLSPANQRKCERVLLALFCHEPCRPLHQLATDSTFSLDQPGGTLDLTLIRARLQEKLSPPYSSPQEFAQDVGRMFKQFNKLTEDKADVQSIIGLQRFFETRMNEAFGDTKFSAVLVEPPPMSLPGAGLSSQELSGGPGDGP
notes: Tripartite motif-containing 28 (TRIM28); Plasmids and their construction are in Supplementary file 2; also called TRIM28 fused to a C-terminal moiety of YFP; Prey
In the case of B1, the “fold lower BiFC signal than with tau as prey” value (α-Syn:nYFP) is reported as roughly 8 fold and the “fold lower BiFC signal than with tau as prey” value (tau:nYFP) is reported as roughly 8 fold.
